In this test the target is apo-CA-HNifU (N-terminal His-tagged NifU with cysteines 35, 62, 106, 272 and 275 mutated to alanine, core cluster removed) (A. vinelandii) (UniProt P05340).
Sequence of UniProt P05340 (P05340 other isoform, or with tags, fused parts or gaps, change not shown): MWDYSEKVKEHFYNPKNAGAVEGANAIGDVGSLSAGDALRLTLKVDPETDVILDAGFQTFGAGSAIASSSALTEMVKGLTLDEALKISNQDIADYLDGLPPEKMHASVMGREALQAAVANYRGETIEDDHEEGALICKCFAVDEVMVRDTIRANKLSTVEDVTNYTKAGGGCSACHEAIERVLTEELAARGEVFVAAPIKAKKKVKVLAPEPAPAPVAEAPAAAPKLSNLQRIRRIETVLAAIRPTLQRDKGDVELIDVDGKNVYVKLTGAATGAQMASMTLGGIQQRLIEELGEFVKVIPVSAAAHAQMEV

As for “C-terminal Strep-tagged A. vinelandii GrxD (GrxDS) (natural protein)”, the iron transferred from GrxDS to EDTA-treated CA-HNifU (iron in the flowthrough NifU after incubation and separation in a Strep-column) came to 1 iron; the iron transferred from GrxDS to urea-treated apo-CA-HNifU (iron in the flowthrough NifU after incubation and separation in a Strep-column) worked out at 1.8 irons.

(Values after publication PMC13382767.)
